Earlier results on two substances are cited in article PMC2847435.

Series [1] addresses PDZ ligand peptide VKESLV.
Series [2] addresses PDZ ligand peptide VKQSLL.
In series [3] the target is Src pY527 tail pY527 tail (UniProt P12931).

The term Kd denotes the equilibrium constant for the complex coming apart. As to “syntrophin PDZ domain PDZ (from UniProt Q61234)”, the values for the Kd in series [1] and in series [2] were 8 µM and 100 µM, respectively.

Regarding “Src SH2 domain SH2 (from UniProt P12931)”, the Kd in series [3] is 29 µM.
